{
  "source": "IntAct's records for PubMed 35512704",
  "parents": {"B1": {"name": "Mothers against decapentaplegic homolog 4 (Homo sapiens), Q13485 (parent)", "chain": "MDNMSITNTPTSNDACLSIVHSLMCHRQGGESETFAKRAIESLVKKLKEKKDELDSLITAITTNGAHPSKCVTIQRTLDGRLQVAGRKGFPHVIYARLWRWPDLHKNELKHVKYCQYAFDLKCDSVCVNPYHYERVVSPGIDLSGLTLQSNAPSSMMVKDEYVHDFEGQPSLSTEGHSIQTIQHPPSNRASTETYSTPALLAPSESNATSTANFPNIPVASTSQPASILGGSHSEGLLQIASGPQPGQQQNGFTGQPATYHHNSTTTWTGSRTAPYTPNLPHHQNGHLQHHPPMPPHPGHYWPVHNELAFQPPISNHPAPEYWCSIAYFEMDVQVGETFKVPSSCPIVTVDGYVDPSGGDRFCLGQLSNVHRTEAIERARLHIGKGVQLECKGEGDVWVRCLSDHAVFVQSYYLDREAGRAPGDAVHKIYPSAYIKVFDLRQCHRQMQQQAATAQAAAAAQAAAVAGNIPGPGSVGGIAPAISLSAAAGIGVDDLRRLCILRMSFVKGWGPDYPRQSIKETPCWIEIHLHRALQLLDEVLHTMPIADPQPLD", "partner": "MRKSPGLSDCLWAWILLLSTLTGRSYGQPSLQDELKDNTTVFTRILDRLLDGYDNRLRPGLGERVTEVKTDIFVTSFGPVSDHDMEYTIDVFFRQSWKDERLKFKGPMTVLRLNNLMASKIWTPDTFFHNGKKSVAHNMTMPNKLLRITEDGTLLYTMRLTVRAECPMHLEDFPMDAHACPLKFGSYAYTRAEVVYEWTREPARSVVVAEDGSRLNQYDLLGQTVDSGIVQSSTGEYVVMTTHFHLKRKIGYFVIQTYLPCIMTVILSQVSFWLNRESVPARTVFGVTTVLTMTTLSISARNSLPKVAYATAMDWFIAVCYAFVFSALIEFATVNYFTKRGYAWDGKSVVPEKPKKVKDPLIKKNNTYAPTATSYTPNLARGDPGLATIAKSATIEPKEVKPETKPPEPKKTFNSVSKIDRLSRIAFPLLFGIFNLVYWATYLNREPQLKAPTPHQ"}, "B2": {"name": "Mothers against decapentaplegic homolog 4 (Homo sapiens), Q13485 (parent)", "chain": "B1 chain", "partner": "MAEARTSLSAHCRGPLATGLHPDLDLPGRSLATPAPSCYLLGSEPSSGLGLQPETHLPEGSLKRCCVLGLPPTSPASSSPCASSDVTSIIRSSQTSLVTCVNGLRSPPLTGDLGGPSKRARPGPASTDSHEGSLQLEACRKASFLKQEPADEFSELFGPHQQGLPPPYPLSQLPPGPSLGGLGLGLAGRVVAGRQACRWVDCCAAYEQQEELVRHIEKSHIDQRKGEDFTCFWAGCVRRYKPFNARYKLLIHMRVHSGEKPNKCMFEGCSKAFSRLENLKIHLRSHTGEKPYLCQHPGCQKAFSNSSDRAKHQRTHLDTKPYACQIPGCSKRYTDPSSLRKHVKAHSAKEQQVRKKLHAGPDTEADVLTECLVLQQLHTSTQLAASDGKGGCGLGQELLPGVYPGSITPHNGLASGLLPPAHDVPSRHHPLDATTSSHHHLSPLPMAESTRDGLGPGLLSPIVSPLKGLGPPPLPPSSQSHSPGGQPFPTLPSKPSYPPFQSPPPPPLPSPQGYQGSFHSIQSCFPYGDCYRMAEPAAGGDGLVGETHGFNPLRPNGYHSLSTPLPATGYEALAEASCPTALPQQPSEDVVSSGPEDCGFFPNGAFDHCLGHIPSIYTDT"}, "B3": {"name": "Mothers against decapentaplegic homolog 4 (Homo sapiens), Q13485 (parent)", "chain": "B1 chain", "partner": "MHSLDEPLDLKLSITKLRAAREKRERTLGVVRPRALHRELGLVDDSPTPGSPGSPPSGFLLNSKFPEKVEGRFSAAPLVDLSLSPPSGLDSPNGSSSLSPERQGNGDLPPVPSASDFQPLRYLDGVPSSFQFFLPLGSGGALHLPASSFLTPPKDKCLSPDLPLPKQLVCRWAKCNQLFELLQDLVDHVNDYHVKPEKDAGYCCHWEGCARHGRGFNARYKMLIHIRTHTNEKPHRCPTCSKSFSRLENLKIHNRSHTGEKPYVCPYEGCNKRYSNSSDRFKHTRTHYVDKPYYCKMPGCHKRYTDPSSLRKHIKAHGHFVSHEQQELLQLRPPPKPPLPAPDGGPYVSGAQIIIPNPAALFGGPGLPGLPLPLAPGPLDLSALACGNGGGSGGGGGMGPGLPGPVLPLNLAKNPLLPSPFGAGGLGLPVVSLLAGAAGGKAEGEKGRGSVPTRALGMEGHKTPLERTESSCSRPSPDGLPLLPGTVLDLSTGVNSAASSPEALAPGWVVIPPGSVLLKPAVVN"}, "B4": {"name": "Mothers against decapentaplegic homolog 4 (Homo sapiens), Q13485 (parent)", "chain": "B1 chain", "partner": "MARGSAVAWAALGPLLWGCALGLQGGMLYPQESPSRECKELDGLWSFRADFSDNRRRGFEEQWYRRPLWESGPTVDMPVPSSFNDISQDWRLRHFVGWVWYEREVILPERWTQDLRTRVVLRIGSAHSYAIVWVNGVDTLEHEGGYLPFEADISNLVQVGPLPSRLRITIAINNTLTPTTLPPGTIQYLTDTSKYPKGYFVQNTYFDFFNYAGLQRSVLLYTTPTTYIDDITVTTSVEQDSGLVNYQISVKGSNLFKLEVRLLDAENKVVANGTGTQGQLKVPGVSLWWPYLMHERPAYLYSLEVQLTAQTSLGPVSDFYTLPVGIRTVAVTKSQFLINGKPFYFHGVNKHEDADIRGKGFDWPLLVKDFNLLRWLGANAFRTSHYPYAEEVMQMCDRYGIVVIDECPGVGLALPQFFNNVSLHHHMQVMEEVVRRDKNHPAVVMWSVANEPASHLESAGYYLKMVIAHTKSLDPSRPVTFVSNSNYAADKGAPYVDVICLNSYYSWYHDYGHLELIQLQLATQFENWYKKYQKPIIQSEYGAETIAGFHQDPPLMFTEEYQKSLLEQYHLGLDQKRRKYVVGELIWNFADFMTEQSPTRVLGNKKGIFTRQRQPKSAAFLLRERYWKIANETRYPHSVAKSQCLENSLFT"}},
  "data": [
    {"variants_of": "B1", "details": "with gbra1_human GABRA1, P14867", "values": [
      {"variant": "R361H", "effect of a mutation on the interaction": "with no effect"}
    ]},
    {"variants_of": "B2", "details": "with glis1_human GLIS1, Q8NBF1", "values": [
      {"variant": "D351H", "effect of a mutation on the interaction": "with no effect"}
    ]},
    {"variants_of": "B2", "details": "with glis1_human GLIS1, Q8NBF1", "remark": "another data set of the same source", "values": [
      {"variant": "G386D", "effect of a mutation on the interaction": "with no effect"}
    ]},
    {"variants_of": "B2", "details": "with glis1_human GLIS1, Q8NBF1", "remark": "another data set of the same source", "values": [
      {"variant": "R361H", "effect of a mutation on the interaction": "with no effect"}
    ]},
    {"variants_of": "B3", "details": "with glis2_human GLIS2, Q9BZE0", "values": [
      {"variant": "D351H", "effect of a mutation on the interaction": "with no effect"}
    ]},
    {"variants_of": "B3", "details": "with glis2_human GLIS2, Q9BZE0", "remark": "another data set of the same source", "values": [
      {"variant": "G386D", "effect of a mutation on the interaction": "with no effect"}
    ]},
    {"variants_of": "B3", "details": "with glis2_human GLIS2, Q9BZE0", "remark": "another data set of the same source", "values": [
      {"variant": "R361C", "effect of a mutation on the interaction": "with no effect"}
    ]},
    {"variants_of": "B3", "details": "with glis2_human GLIS2, Q9BZE0", "remark": "another data set of the same source", "values": [
      {"variant": "R361H", "effect of a mutation on the interaction": "with no effect"}
    ]},
    {"variants_of": "B4", "details": "with bglr_human GUSB", "values": [
      {"variant": "D351H", "effect of a mutation on the interaction": "with no effect"}
    ]},
    {"variants_of": "B4", "details": "with bglr_human GUSB", "remark": "another data set of the same source", "values": [
      {"variant": "G386D", "effect of a mutation on the interaction": "with no effect"}
    ]},
    {"variants_of": "B4", "details": "with bglr_human GUSB", "remark": "another data set of the same source", "values": [
      {"variant": "R361C", "effect of a mutation on the interaction": "with no effect"}
    ]},
    {"variants_of": "B4", "details": "with bglr_human GUSB", "remark": "another data set of the same source", "values": [
      {"variant": "R361H", "effect of a mutation on the interaction": "with no effect"}
    ]}
  ]
}
